B1: Nibrin (Homo sapiens), O60934 (parent)
chain: MWKLLPAAGPAGGEPYRLLTGVEYVVGRKNCAILIENDQSISRNHAVLTANFSVTNLSQTDEIPVLTLKDNSKYGTFVNEEKMQNGFSRTLKSGDGITFGVFGSKFRIEYEPLVACSSCLDVSGKTALNQAILQLGGFTVNNWTEECTHLVMVSVKVTIKTICALICGRPIVKPEYFTEFLKAVESKKQPPQIESFYPPLDEPSIGSKNVDLSGRQERKQIFKGKTFIFLNAKQHKKLSSAVVFGGGEARLITEENEEEHNFFLAPGTCVVDTGITNSQTLIPDCQKKWIQSIMDMLQRQGLRPIPEAEIGLAVIFMTTKNYCDPQGHPSTGLKTTTPGPSLSQGVSVDEKLMPSAPVNTTTYVADTESEQADTWDLSERPKEIKVSKMEQKFRMLSQDAPTVKESCKTSSNNNSMVSNTLAKMRIPNYQLSPTKLPSINKSKDRASQQQQTNSIRNYFQPSTKKRERDEENQEMSSCKSARIETSCSLLEQTQPATPSLWKNKEQHLSENEPVDTNSDNNLFTDTDLKSIVKNSASKSHAAEKLRSNKKREMDDVAIEDEVLEQLFKDTKPELEIDVKVQKQEEDVNVRKRPRMDIETNDTFSDEAVPESSKISQENEIGKKRELKEDSLWSAKEISNNDKLQDDSEMLPKKLLLTEFRSLVIKNSTSRNPSGINDDYGQLKNFKKFKKVTYPGAGKLPHIIGGSDLIAHHARKNTELEEWLRQEMEVQNQHAKEESLADDLFRYNPYLKRRR

Variants of: B1
Settings: with chk2_human CHEK2, O96017
chk2_human CHEK2, O96017, sequence (O96017 whole entry): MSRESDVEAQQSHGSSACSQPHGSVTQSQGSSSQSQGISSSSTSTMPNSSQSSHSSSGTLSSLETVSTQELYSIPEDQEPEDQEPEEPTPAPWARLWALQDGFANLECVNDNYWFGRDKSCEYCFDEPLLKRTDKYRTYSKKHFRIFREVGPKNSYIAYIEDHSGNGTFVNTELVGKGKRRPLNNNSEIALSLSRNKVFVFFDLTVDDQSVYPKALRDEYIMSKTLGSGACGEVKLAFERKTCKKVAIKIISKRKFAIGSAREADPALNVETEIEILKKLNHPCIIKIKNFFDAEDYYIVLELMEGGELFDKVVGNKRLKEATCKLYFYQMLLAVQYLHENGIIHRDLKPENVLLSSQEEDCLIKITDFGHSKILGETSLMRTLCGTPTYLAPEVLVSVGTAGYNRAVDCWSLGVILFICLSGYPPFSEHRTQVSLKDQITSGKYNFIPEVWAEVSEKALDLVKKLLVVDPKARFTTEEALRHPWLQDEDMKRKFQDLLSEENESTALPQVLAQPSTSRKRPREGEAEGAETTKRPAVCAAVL

effect of a mutation on the interaction	Variant
decreasing interaction	S343A

Source: IntAct's records for PubMed 11438675
